These are literature values, as cited in patent US20040072753A1, “Peptides for use in the treatment of alzheimer's disease” (priority 2000, published 2004).

The Kd is a measure of binding affinity in units of concentration.

This data set concerns the target Aβ (Homo sapiens, UniProt P05067). Particulars: Milton, Biochem. J. 344: 293-296 (1999); read-out: binding KD for catalase.

B1: catalase: antioxidant enzyme that binds Aβ (protein)
chain: ADSRDPASDQMQHWKEQRAAQKADVLTTGAGNPVGDKLNVITVGPRGPLLVQDVVFTDEMAHFDRERIPERVVHAKGAGAFGYFEVTHDITKYSKAKVFEHIGKKTPIAVRFSTVAGESGSADTVRDPRGFAVKFYTEDGNWDLVGNNTPIFFIRDPILFPSFIHSQKRNPQTHLKDPDMVWDFWSLRPESLHQVSFLFSDRGIPDGHRHMNGYGSHTFKLVNANGEAVYCKFHYKTDQGIKNLSVEDAARLSQEDPDYGIRDLFNAIATGKYPSWTFYIQVMTFNQAETFPFNPFDLTKVWPHKDYPLIPVGKLVLNRNPVNYFAEVEQIAFDPSNMPPGIEASPDKMLQGRLFAYPDTHRHRLGPNYLHIPVNCPYRARVANYQRDGPMCMQDNQGGAPNYYPNSFGAPEQQPSALEHSIQYSGEVRRFNTANDDNVTQVRAFYVNVLNEEQRKRLCENIAGHLKDAQIFIQKKAVKNFTEVHPDYGSHIQALLDKYNAEKPKNAIHTFVQSGSHLAAREKANL
Turning to B1, the Kd is 3.3 nM.
